Test: soluble on expression in E. coli; label from the status in PepcDB or PDB records

Row | Sequence | soluble on expression in E. coli
1 | MSLALNLSKAVVGYLQVRPEEKFTARQIAEWVFATYPAECQEKRANSRGDYIKSDADLVQQLVAEISSQRPRMQMKHPALKTTEGRPRKYYYSEKSDSAEVAAAEGEGATAAADIGTSMLDEHALYPLLSQYLWEEFGVFSKRINEKRSSNKRGPNGNRWLYPDMVGMQDLGADWHREVRDCVKQYSDKRTKLWSFEVKLLINRSNIRECFFQAVSNSSWSNFGYLVAAEVSGQETLKELRMLFAAHGIGFIRLDVDNPADSQVLIPARERDAIDWDMANRLATENRDFLNYVKQVKQFYQTGEARFKDWDVPEEYSIQEGHHHHHH | soluble
2 | SHSSSRASFTTRGDIRRQVEGFSASGERNKDTVVDLSTFFAERGYSNNQAPTKYWEEKLVTIGNVVVPKWVPVKERNSSNKQKEGEDEVFIGFEAIYYPEQPPERQPITLYQEENKVEEEEQSRE | soluble
3 | MADKKEKLFSDFSPVSTEQWMEKVTADLKGADFEKKLVWKTNEGFKVKPFYRMEDLEGLKTTDALPGEFPYLRGTKKSNNEWLVRQEIKVECPKEANAKALDILNKGVDSLSFHVKAKELNAEYIETLLNGIQAECVELNFSTCQGHVVELAGLLVAYFQKKDYDVKKLRGSVNYDFFNKMLTRGKEKGDMVQTAKALIEAIQPLPFYRVLNVNAISLNNAGAYISQELGYALAWGNEYMNQLTDAGIPAATVAKKIKFNFGISSNYFLEIAKFRAARMLWANIVASYHPECLRDCDNKGANGECRCAAKMAVHAETSTFNLTLFDAHVNLLRTQTEAMSAALAGVDSMTVVPFDKTYSTPDEFSERLARNQQLLLKEESHFDKVIDPAAGSYYIENLTVSIAKQAWELFLAVEEAGGFYAALKAGTVQAAVNESNKARHKAVAQRREVLLGTNQFPNFNEKAGEKQPIEAKCCCGGDAHTCEKDVDTLVFDRAASEFEALRLETEASGKRPKAFMLTIGNLAMRQARAQYSCNFLACAGYEVIDNLGFETVEAGVEAAMAAKADIVVLCSSDDEYAEYAVPAFKALDGRAMFIVAGAPACMDELKAAGIENFIHVRVNVLDTLKEFNAKLLK | not soluble
4 | MINKTKEKLILIGMPGSGKTTIGKLLAKEYNCSFCDMDDYIIQISQKSIAELFSEGEDIFRNYETQACRELSISDKTVISTGGGVIKKDVNMEILKETGIIIFIDRPIQKILEDININSRPLLKNGKDRLYNLYNERINLYKKFSDIEILNDKSLNNAVYNITNAVSENFKFDFKEK | not soluble
5 | MSLDKVLVGYWHNWKSTGKDGYKGGSSADFNLSSTQEGYNVINVSFMKTPEGQTLPTFKPYNKTDTEFRAEISKLNAEGKSVLIALGGADAHIELKKSQESDFVNEIIRLVDTYGFDGLDIDLEQAAIEAADNQTVIPSALKKVKDHYRKDGKNFMITMAPEFPYLTSSGKYAPYINNLDSYYDFINPQYYNQGGDGFWDSDLNMWISQSNDEKKEDFLYGLTQRLVTGTDGFIKIPASKFVIGLPSNNDAAATGYVKDPNAVKNALNRLKASGNEIKGLMTWSVNWDAGTNSNGEKYNNTFVNTYAPMLFNNEGIITITTDPNSSSVDKLAAALEHHHHHH | soluble
6 | MWTNTFQEGLKIVGENISLSLPDGRQELFRLTDGAISSDATTGTLSKDQAGWRYDYRDGTSSLFDVQGRLIQRKVRGQVITITYPNLSTTKAKDGFGNTLTVSWNATKQPYLVDYNGSLKVEYLYDGGARLVSKKTTSQGLNRTRKYLYADSGNAGLMVGIIDEQGTRYATWTYDNQGRAISSEHANGAEKVSLAYNDDGSTTVTNEYGKQATYRFQVIQGIKRIVAIEGQPSPNCPSSNSTFTYDDQGLLTSKRDNNGNLTTYQYNARGLETSRTEAAGTAQARTITTDWHPTLFLPVQVSEPGRITRYQYDAEGRKTGETVTTR | not soluble
7 | MAHHHHHHMGLMLPKPILSKVVDRAGNSFVNAACASQNGFRNSMEDAHMLVATDDADVAYFGIFDGHSNAECSAYVARELPQRLKKLPESITAEMLEKVCIEVDEAYMKTSTEGGTTGTFCVIRKDLTVTIANVGDSRILVCRGGKLIFATEDHKPYIPGETERIVACGGSVVSNRVDGDLAVSRAFGDASFKVKGTKDYRMQKVIAVPDVSVLQCEPNDFIILACDGVFEGNFSNEDVCQFVWEQQQNCWDDLAVVACRVCDEAIRCGSKDNISCLVVQLAEGASRVKAFGATSFVPGPPFPRNQQPCRAAYAQMAELGHTTTAAALQTRYQLLQAFSKNKLNSQPPVMRTAFEMSDEVDVETEWSFFGKGPAPGNEKNFFEALANTGNSS | soluble
8 | MSLEQCYTDVTEFAIPASTQKLYLSPVLDGFNSEIIAYNLSTSPNLEQVQTMLEQAFTEKHYENTILHSDQGWQYQHDSYHQFLEGKGIQASMSRKGNSQDNGMMESFFGILKSEMFYGYEKTFKSLNQLEQAIVDYIDYYNNKRIKVKLKGLSPVQYRTKSFGEGHHHHHH | soluble
9 | SVLLQMTQRLALSDAHFRRICQLIYQRAGIVLADHKRDMVYNRLVRRLRALGLDDFGRYLSMLEANQNSAEWQAFINALTTNLTAFFREAHHFPILAEHARRRHGEYRVWSAAASTGEEPYSIAITLADALGMAPGRWKVFASDIDTEVLEKARSGIYRLSELKTLSPQQLQRYFMRGTGPHEGLVRVRQELANYVEFSSVNLLEKQYNVPGPFDAIFCRNVMIYFDKTTQEDILRRFVPLLKPDGLLFAGHSENFSNLVREFSLRGQTVYALS | soluble
10 | MAHHHHHHMSHYLLVTFTFNCPEIRILGPIKEQTIEKLNDVIPNATTTSRSNRTALPKFEYLPNPNHWYIKLDRQFCDEDGKSHLMVLLLDALSEEGSWRLVSSFVTKEPSGTGSKEGTETHTLFLNKLLAEDS | soluble
11 | SALKAEGAALDCFEVTLKCEEGEDEEEAMVVAVIPRPEPMLRVTQQEKTPPPRPSPLEAGSDGCEEPKQQVSWEQEFLVGSSPGGSGRALCMVCGAEIRAPSADTARSHILEQHPHTLDLSPSEKSNILEAWSEGVALLQDVRAEQPSPPNSDSGQDAHPDPDANPDAARMPAEIVVLLDSEDNPSLPKRSRPRGLRPLELPAVPATEPGNKKPRGQRWKEPPGEEPVRKKRGRPMTKNLDPDPEPPSPDSPTETFAAPAEVRHFTDGSFPAGFVLQLFSHTQLRGPDSKDSPKDREVAEGGLPRAESPSPAPPPGLRGTLDLQVIRVRMEEPPAVSLLQDWSRHPQGTKRVGAGDTSDWPTVLSESSTTVAGKPEKGNGV | soluble
12 | MKTINSVDTKEFLNHQVANLNVFTVKIHQIHWYMRGHNFFTLGEKMDDLYSEFGEQMDEVAERLLAIGGSPFSTLKEFLENASVEEAPYTKPKTMDQLMEDLVGTLELLRDEYKQGIELTDKEGDDVTNDMLIAFKASIDKHIWMFKAFLGKAPLE | soluble
13 | MSLTKMVIKGGTVYDPLNGIDGEVMDIFIKDGKIVENLSDGELKDAKILDVKGKVVMPGGVDSHTHVAGPKVNTGRVMCPEDHYKSPLKKTHNTHCGSGEIVPSTYAQGYKYSSMGYTTLFEAAVPPMLARHTHEEFKVMPIVDKAGYLLLGSNWFVMKYLKEGNVEKAAAYVAWALETTKTFGIKLVNPAGVESWAWGKNVHSLEEENIHFGISSGEVIRGLGAVNEMLGLPMSIHLHANNLGHPGNWEFTIDTMDVAKNIKPAVNKQGYDNGVKTKYSHEREQSLYMTHMQFHSFGGTSWKDFESKAEDISNYVNKSDHVVMDSGSVAFGKAICMTGDGPGLYDLAVMNGQKWANVDVELECGSGVVPFVYSMKNKVHSVQWAMGIELLLLTDPRKVIMTTDNPNAGPFTKYPQLITWLMSKKAREDTMKLCHKWAGERSGLAGNDKELSLYDLATVTRATPAKAIGMGHRKGHLSPGADADITVYDISPDYNSSDYAAIEKAFTTALFTIKDGEVITKDGRIIETPKGRTYYVDAKFNEEIQKEIIADVQDWFRRYYSIGFSNYPVPDLYLTKPTPLNINVREGHHHHHH | not soluble
14 | MGSSHHHHHHSSGLVPRGSHMGSEGGPALFQSDMTFKIFIDGEVNGQKFTIVADGSSKFPHGDFNVHAVCETGKLPMSWKPICHLIQYGEPFFARYPDGISHFAQECFPEGLSIDRTVRFENDGTMTSHHTYELDDTCVVSRITVNCDGFQPDGPIMRDQLVDILPNETHMFPHGPNAVRQLAFIGFTTADGGLMMGHFDSKMTFNGSRAIEIPGPHFVTIITKQMRDTSDKRDHVCQREVAYAHSVPRITSAIGSDED | soluble

Reference: the DeepSol protein solubility set
